Legend:
[1] = target: CHO-expressed soluble CD4 (UniProt P01730)
[2] = target: soluble recombinant DC-SIGN, entire extracellular domain (residues 70-404) (UniProt Q9NNX6); assay: acoustic biosensor (RapID4); soluble DC-SIGN amine-coupled, BSA on the control cell; purified or unpurified inactivated virus 34-250 nM (by p24, 2500 gag per virion); Langmuir kinetic model
[3] = target: HIV-1 IIIB gp140 (soluble, trimeric ectodomain of the envelope glycoprotein, residues 31-665) (HIV-1 strain IIIB (clade B, X4), molecular clone pBH10) (UniProt P03375); assay: SPR; gp140 immobilised by direct amine coupling on CM5 (560 RU BX08, 620 RU IIIB); fluid phase DC-SIGN 50-600 nM or Langerin 25-200 nM; HBS-P pH 7.4 with 10 mM CaCl2; heterogeneous analyte model (KD2 oligomer, KD1 monomer)
[4] = target: HIV-1 BX08 gp140 (soluble, trimeric ectodomain of the envelope glycoprotein, residues 31-663) (HIV-1 strain 92FR_BX08 (clade B, R5)); assay: as above
[5] = target: HIV-1 BX08 gp140 (soluble, trimeric ectodomain of the envelope glycoprotein, residues 31-663) (HIV-1 strain 92FR_BX08 (clade B, R5))
[6] = target: HIV-1 IIIB virus particles (envelope glycoprotein on virions) (HIV-1 strain IIIB (clade B)) (UniProt P03375)

soluble recombinant DC-SIGN, entire extracellular domain (residues 70-404) (from UniProt Q9NNX6-1 70-404) (domain or fragment), sequence (Q9NNX6 70-404): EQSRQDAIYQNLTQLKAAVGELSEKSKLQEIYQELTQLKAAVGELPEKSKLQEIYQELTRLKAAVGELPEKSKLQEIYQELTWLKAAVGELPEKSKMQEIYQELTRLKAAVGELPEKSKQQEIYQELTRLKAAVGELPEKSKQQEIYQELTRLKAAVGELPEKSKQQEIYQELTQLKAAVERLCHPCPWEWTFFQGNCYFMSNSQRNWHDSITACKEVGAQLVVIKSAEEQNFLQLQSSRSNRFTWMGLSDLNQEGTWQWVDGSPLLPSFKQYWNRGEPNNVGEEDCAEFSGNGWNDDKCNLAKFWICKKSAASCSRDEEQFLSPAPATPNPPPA
soluble recombinant Langerin, full extracellular domain (residues 56-328), sequence (Q9UJ71 56-328): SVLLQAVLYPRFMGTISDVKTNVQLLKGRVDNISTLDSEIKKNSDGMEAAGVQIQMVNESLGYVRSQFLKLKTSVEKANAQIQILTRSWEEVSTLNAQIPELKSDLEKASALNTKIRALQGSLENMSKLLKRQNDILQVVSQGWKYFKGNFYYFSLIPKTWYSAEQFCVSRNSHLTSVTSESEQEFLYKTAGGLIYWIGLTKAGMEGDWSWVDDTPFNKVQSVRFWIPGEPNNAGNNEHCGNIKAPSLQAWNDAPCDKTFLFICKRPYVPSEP
soluble recombinant DC-SIGN, entire extracellular domain (residues 70-404) (UniProt Q9NNX6), sequence (Q9NNX6 70-404): as the sequence (Q9NNX6 70-404) above

Substance “HIV-1 BX08 gp140 (soluble, trimeric ectodomain of the envelope glycoprotein, residues 31-663) (domain or fragment)” has a maximum enhancement of p24 release from PM1 cells infected with HIV-1 BX08 pre-incubated with soluble DC-SIGN at <1 nM, against no treatment [1] of 3.6 fold.
For “HIV-1 IIIB virus particles (envelope glycoprotein on virions) (from UniProt P03375 33-511; P03375 512-856) (complex)”, the Kd [2] was 96 nM and the maximum enhancement of p24 release from PM1 cells infected with HIV-1 IIIB pre-incubated with soluble DC-SIGN at <1 nM, against no treatment [1] was 15.3 fold.
Substance “HIV-1 IIIBx virus particles (envelope glycoprotein on virions), CD4-independent variant of IIIB (from UniProt P03375 33-511; P03375 512-856) (complex)” has a Kd [2] of 20 nM.
“soluble recombinant DC-SIGN, entire extracellular domain (residues 70-404) (from UniProt Q9NNX6-1 70-404) (domain or fragment)” showed a KD2 (tetrameric form, heterogeneous analyte model) [3] of 0.063 µM, a KD2 (tetrameric form, heterogeneous analyte model) [4] of 0.062 µM and an IC50 of soluble DC-SIGN for inhibition of HIV-1 BX08 replication in PM1 cells (p24 release, 10 days); pair said to be blocked: envelope protein with CD4 [5] of 2.5 nM. It also gave an IC50 of soluble DC-SIGN for inhibition of HIV-1 IIIB replication in PM1 cells (p24 release, 10 days); pair said to be blocked: envelope protein with CD4 [6] of 4 nM.
Substance “soluble recombinant Langerin, full extracellular domain (residues 56-328) (from UniProt Q9UJ71 56-328) (domain or fragment)” has a KD2 (trimeric form, heterogeneous analyte model) [3] of 0.011 µM and a KD2 (trimeric form, heterogeneous analyte model) [4] of 0.024 µM.

Source: article PMC3233575
